Where no end group is shown, it is not given here. FAM = 5(6)-carboxyfluorescein label; Ahx = NCCCCCC(=O)O
Columns and labels:
Tie2 [1] = target: T1, Tie2 (Homo sapiens, UniProt Q02763); test: Binding of T4 peptide to Tie2; parameters: expressed in transfected cells; host or cells: U-251 MG stably transfected with Tie-2 cDNA (parental U-251 MG is Tie2-negative); also A172 cells with endogenous Tie2; conditions: U-251 MG isogenic system and A172
Description: Testing the binding of the proposed Tie2-ligand, T4, the inventors synthesized the peptide linked to FAM signal that was suitable for flow cytometric detection. Peptide was synthesized by automatic solid phase chemistry using Fmoc strategy. The N-terminal aminohexanoic acid was labeled by coupling 5(6)-carboxyfluorescein. Peptides were purified to >98% purity by reverse phase HPLC.

Tie2 [2] = target: T1, Tie2; parameters: expressed in transfected cells; host or cells: U-251 MG stably transfected with Tie-2 cDNA (parental U-251 MG is Tie2-negative); also A172 cells with endogenous Tie2; conditions: Tournaire et al. (2004); cited from earlier work
P-MAPK = P-MAPK inhibition; format: cell-based, human; conditions: U-87 MG cells
Description: Although the correlation between MAPK activity and Ad-E1A-COX ability to replicate has been shown (Ahmed et al., 2003), the inventors have designed studies to assess the ability of retargeted constructs to replicate in glioma cells with high or low MAPK activity. To characterize the effects of the insertion of the 3′ UTR on E1A expression, inhibitors of kinases signaling, PD98059 (p42/p44 MAPK inhibitor), and for specificity testing: SB203580 (p38 MAPK inhibitor) and LY294002 (PI3K inhibitor) will be used. The inventors will use an isogenic U-87 MG system, containing a stably integrated, IPTG-inducible activated Ha-rasVal12 cDNA (Sheng et al., 2000). This model system is based in cells that only differ in the expression of an activated variant of the Hras oncogene, Ha-rasVal12 (Sheng et al., 2000). The will assess whether PTGS2 3′ UTR-mediated Ad-E1A-COX-Tie2 depends on the P-MAPK pathway. […] The replication capability of Ad-E1A-COX-Tie2 in U87-MG cells untreated and treated with PD98059 (and the control inhibitors) will be assessed. The inventors contemplate that inhibition of P-MAPK activity by PD98059 will greatly reduce the ability Ad-E1A-COX-Tie2 to replicate even with high expression of Ha-rasVal12 induced by IPTG in the isogenic U-87 MG. […]

Tie2 [3] = target: T1, Tie2; test: Tie2 phosphorylation, immunoprecipitation; format: cell-based; conditions: U-87 MG, 500 ng/ml, 10 min
Experimental: To explore the regulation of Tie2 signaling by Angs in U-87 MG cells, Tie2 was immunoprecipitated from membrane fractions of U-87 MG cells treated with rAng1 (500 ng/ml) for 10 min, and phosphorylation of Tie2 was addressed using anti-phosphotyrosine antibody.

[4] = tested on: ERK1 (p44MAPK) and ERK2 (p42MAPK); test: ERK1/2 (p42/p44 MAPK) phosphorylation, Western blot; format: cell-based, human
Experimental: HUVEC and U-87 MG cells were mock-, AdCMV- or AdAng-2-Infected. 24 hours later they were overnights serum-starved, and then stimulated with […] for 10 min. Cell lysates were collected and analyzed by Western blotting for expression of phospho- and total p42/p44 MAPK. Ang-1 increased ERK 1/2 phosphorylation what was inhibited by the viral-transduced Ang-2.
The Ang-2/Ang-1/Tie2 system has been studied in endothelial cells, and different pathways have been reported as involved in the cascade signaling; these include phosphotidylinositol […] (PI3-K), focal adhesion kinase, Raf/Ras/mitogen-activated protein kinase (MAPK), and Dok-R/Dok-2/Nck/Pak (Yoon et al., 2003). […] These cascades modulate protein synthesis and/or transcriptional activation. […] To measure MAPK activity, the inventors measured the degree of phosphorylation of two MAPKs, ERK1 (p44MAPK) and ERK2 (p42MAPK).
The Ang-2/Ang1/Tie2 system has been studied in endothelial cells, and different pathways have been reported as involved in the cascade signaling. […] MAPK activity was measured by the degree of phosphorylation of two MAPKs, ERK1 (p44^MAPK) and ERK2 (p42^MAPK).

Ras = Ras activity (Ras-GTP); format: cell-based, human; conditions: U-87 MG
Experimental: In addition, the inventors have obtained data regarding the upstream effector of p42/p44 MAPK, Ras, by analyzing Ras activity in Ang1-estimulated U-87 MG cells. Ras activity, which detects active GTP-bound Ras, was performed by immunoprecipitation of Ras-Raf complexes (contains only active Ras), and consequent western blotting detection of Ras-GTP molecule.

U-87 MG cells [5] = test: Glioma cell adhesion assay; format: cell-based, human; conditions: 1 hr
Description: It was reported that Ang1 promotes adhesion of Tie2+ hematopoietic stem cells to fibronectin and collagen and also promotes the interaction of endothelial cells with surrounding mesenchymal cells and the extracellular matrix (Davis et al., 1996; Suri et al., 1996; Arai et al., 2004). Therefore, the inventors analyzed the effects of Ang1/Tie2 signalling on glioma adhesion. Briefly, 96-well dishes were coated for 2 hr at room temperature (RT) with rAng1 diluted in PBS. Wells were then blocked for 30 min at RT with 0.5% heat-inactivated BSA in PBS (80° C. for 10 min) and washed three times with PBS before adding cells. U-87 MG cells were harvested and resuspended. 30,000 cells were seeded/well, and the plate was incubated at 37° C. for 1 hr. Nonadherent cells were removed and attached cells were fixed in 4% paraformaldehyde and stained with 0.2% crystal violet. Cells were solubilized in DMSO and absorbance of each well was read at 570 nm. […] Similar results were obtained when Tie2− and Tie2+U-251 MG were used. In addition, the possibility of Ang1-induced adhesion has been assessed. For that study, the wells were coated with several ECM and then, U-87 MG cells that were previously stimulated with Ang1 (BSA control), were plated on those wells. […]

U-87 MG cells [6] = test: Chemotactic migration assay (Transwell); format: cell-based, human; conditions: 24 h
Experimental: Witzenbichler et al. (1998) have reported the chemotactic properties of Ang1 for Tie2-endothelial cells. A chemotaxis assay was performed in the presence or absence of Ang1. Incubation with various concentrations of Ang1 enhanced chemotactic migration of U-87 MG cells. Migration assay was performed as described previously (Gomez-Manzano, 2003). Briefly, the lower surface of the filter was coated with gelatin. 600 μl of DMEM/F-12 (1:1) containing rAng1 and 0.1% BSA was added into lower compartment of the Transwell chamber, and 100 μl of cell suspension was added in the upper chamber. After 24 h of incubation, the filters were fixed, stained with H/E, and the cells on the lower surface of the filters were counted at 400× with Zeiss microscope. Assays were performed in triplicate. […] To distinguish between chemotactic and chemokinetics effect of Ang1 on U-87 MG, an analysis was performed where similar doses of Ang1 were present above and below the filter. Significant migration was observed only when a concentration gradient of Ang1 was established, a finding typical of factors inducing chemotaxis.

Akt = Akt phosphorylation; format: cell-based, human; conditions: U-87 MG, 100-500 ng/ml
Description: Consistant with previous reports, Ang-1/Tie signaling in endothelial cells in vitro involves PI3K/Akt activation (DeBusk et al., 2004; Papapetropoulos et al., 2000).

Dok-R = test: Tie2 association with Dok-R; format: cell-based, human; conditions: stable transfected Tie2 U-251 MG
Description: Tie2 can also recruit additional signaling molecules that participate in cellular pathways that affect the shape and migratory properties of cells. In this regard, the Tie2-associated docking protein Dok-R can potentiate NCK-dependent endothelial cell migration in response to Ang1 (Master et al., 2001; Jones et al., 2003).

T1 sequence (Q02763 23-1124): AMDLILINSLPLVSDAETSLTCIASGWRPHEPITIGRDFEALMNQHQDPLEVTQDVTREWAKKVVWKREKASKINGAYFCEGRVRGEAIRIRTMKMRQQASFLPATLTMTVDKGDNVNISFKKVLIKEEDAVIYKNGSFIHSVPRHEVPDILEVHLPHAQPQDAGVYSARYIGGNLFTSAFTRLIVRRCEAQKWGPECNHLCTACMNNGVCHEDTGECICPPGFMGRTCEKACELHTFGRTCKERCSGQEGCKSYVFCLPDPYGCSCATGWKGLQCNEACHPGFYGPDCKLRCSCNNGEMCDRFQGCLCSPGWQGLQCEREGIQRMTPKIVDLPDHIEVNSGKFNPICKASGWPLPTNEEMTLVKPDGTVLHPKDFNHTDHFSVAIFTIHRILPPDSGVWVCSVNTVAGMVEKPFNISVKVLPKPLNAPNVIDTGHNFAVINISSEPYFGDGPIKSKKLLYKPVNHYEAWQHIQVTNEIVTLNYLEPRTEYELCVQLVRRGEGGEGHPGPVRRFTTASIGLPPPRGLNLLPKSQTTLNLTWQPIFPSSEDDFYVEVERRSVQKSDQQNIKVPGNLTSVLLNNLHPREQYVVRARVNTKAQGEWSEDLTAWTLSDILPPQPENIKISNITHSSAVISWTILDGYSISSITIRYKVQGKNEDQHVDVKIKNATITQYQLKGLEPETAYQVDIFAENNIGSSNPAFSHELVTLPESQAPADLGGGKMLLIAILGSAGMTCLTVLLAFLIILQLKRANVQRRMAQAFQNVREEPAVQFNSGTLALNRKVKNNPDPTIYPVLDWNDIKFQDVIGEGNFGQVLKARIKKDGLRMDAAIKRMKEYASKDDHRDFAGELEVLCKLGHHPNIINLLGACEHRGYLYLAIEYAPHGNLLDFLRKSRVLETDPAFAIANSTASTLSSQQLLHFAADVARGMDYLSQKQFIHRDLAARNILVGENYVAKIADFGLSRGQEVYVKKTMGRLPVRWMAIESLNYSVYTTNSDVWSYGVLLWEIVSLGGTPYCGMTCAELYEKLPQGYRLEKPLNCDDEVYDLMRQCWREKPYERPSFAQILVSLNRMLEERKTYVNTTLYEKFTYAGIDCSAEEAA

In the case of “NLLMAAS ({FAM-Ahx}-NLLMAAS; also: 5(6)-carboxyfluorescein label (site not given here)) [T4]”, the “binding to cell membrane by flow cytometry” value (Tie2 [1]) is listed as “binds preferentially to the membrane of cells overexpressing Tie2” and the “binding of Ang1 and Ang-2 to the Tie2 receptor” value (Tie2 [2]) is listed as “completely abolished”.

In the case of COc1cccc(-c2cc(=O)c3ccccc3o2)c1N [PD98059], the P-MAPK expression (P-MAPK) is reported as “effectively inhibited P-MAPK expression”.

B1: rhAng-1: recombinant angiopoietin-1 protein (protein)
chain: SNQRRSPENSGRRYNRIQHGQCAYTFILPEHDGNCRESTTDQYNTNALQRDAPHVEPDFSSQKLQHLEHVMENYTQWLQKLENYIVENMKSEMAQIQQNAVQNHTATMLEIGTSLLSQTAEQTRKLTDVETQVLNQTSRLEIQLLENSLSTYKLEKQLLQQTNEILKIHEKNSLLEHKILEMEGKHKEELDTLKEEKENLQGLVTRQTYIIQELEKQLNRATTNNSVLQKQQLELMDTVHNLVNLCTKEGVLLKGGKREEEKPFRDCADVYQAGFNKSGIYTIYINNMPEPKKVFCNMDVNGGGWTVIQHREDGSLDFQRGWKEYKMGFGNPSGEYWLGNEFIFAITSQRQYMLRIELMDWEGNRAYSQYDRFHIGNEKQNYRLYLKGHTGTAGKQSSLILHGADFSTKDADNDNCMCKCALMLTGGWWFDACGPSNLNGMFYTAGQNHGKLNGIKWHYFKGPSYSLRSTTMMIRPLDF
For B1, the Tie2 phosphorylation (Tie2 [3]) was “induced phosphorylation of Tie2”, the ERK1/2 phosphorylation ([4]; HU-VEC-C endothelial cells, 100 ng/ml) was “increased ERK1/2 phosphorylation” and the ERK1/2 phosphorylation ([4]; U-87 MG) was “increased ERK1/2 phosphorylation”. The Ras activity (Ras) was “Ras activity increases”, the “adhesion of U-87 cells to Ang1-coated wells” value (U-87 MG cells [5]) was “increasing adhesion properties” and the chemotactic migration (U-87 MG cells [6]) was “significant increase in directed migration”. For the same molecule, the Akt phosphorylation (Akt) was “did not modify the pattern of phosphorylation of the Akt molecule” and the “Tie2 association with Dok-R” value (Dok-R) was “results in Tie2 association with Dok-R protein”.

Reference: patent publication US10080774B2, “Oncolytic adenovirus armed with therapeutic genes” (priority 2002, dated 2018)
